Key:
[1] = biological target: T1, GST-IbIIa (IP3-binding region of mouse IP3R1) (Mus musculus, UniProt P11881); test: GST pulldown with GST-IbIIa; details: IRBIT in high salt extract
T1 construct: GST-IbIIa (amino acids 224-604 of mouse IP3R1) and its site-directed mutants K508A and R441Q; made in house
From the text: (§1) The cDNAs encoding the full-length and N-terminal region (amino acids 1-104) of IRBIT were subcloned into the Escherichia coli hexahistidine (His) fusion vector pET-23a(+) (Novagen) to generate IRBIT-His and IRBIT(1-104)-His expression vectors, respectively. The same cDNAs were subcloned into the GST fusion vector pGEX-4T-1 (Amersham Pharmacia Biotech) to generate GST-IRBIT and GST-IRBIT(1-104) expression vectors, respectively. The cDNA fragments encoding the amino acids 1-225, 1-343, 341-923, 600-1248, 916-1581 and 1553-1943 of the amino acid sequence (SEQ ID NO: 7) of mouse IP3R1 were inserted into pGEX-KG to generate GST-Ia, GST-Iab, GST-IIab, GST-IIbIIIa, GST-IIIab and GST-IV expression vectors, respectively. The amino acids 1593-2217 of mouse IP3R1 were inserted into pGEX-4T-1 to obtain GST-IV-Va expression vector. These fusion proteins were expressed in Escherichia coli. GST-EL was expressed in Sf9 cells as described above. […]
(§2) For the determination of the IRBIT binding region and the critical amino acid residue of IP3R1, the diluted high salt extract was subjected to pulldown assay as described above with 100 pmol of GST, GST-EL, GST-Ia, GST-Iab, GST-IbIIa, GST-IIab, GST-IIbIIIa, GST-IIIab, GST-IV, GST-IV-Va, K508A or R441Q, and analyzed by Western blotting with anti-IRBIT antibody.

[2] = biological target: T2, R441Q mutant of GST-IbIIa (Mus musculus, UniProt P11881, R441Q); test: GST pulldown with R441Q; type: binding; details: IRBIT in high salt extract; compared with GST-IbIIa
T2 construct: GST-IbIIa (amino acids 224-604 of mouse IP3R1) and its site-directed mutants K508A and R441Q; made in house
From the text: as §1, §2

[3] = biological target: T3, K508A mutant of GST-IbIIa (Mus musculus, UniProt P11881, K508A); test: GST pulldown with K508A; type: binding; details: IRBIT in high salt extract
T3 construct: GST-IbIIa (amino acids 224-604 of mouse IP3R1) and its site-directed mutants K508A and R441Q; made in house
From the text: as §1, §2

[4] = biological target: T4, GST-Iab (mouse IP3R1 amino acids 1-343) (Mus musculus, UniProt P11881); test: GST pulldown with GST-Iab; type: binding; details: IRBIT in high salt extract
T4 construct: made in house; host or cells: Escherichia coli
From the text: as §1, §2

[5] = biological target: T5, GST-IIab (mouse IP3R1 amino acids 341-923) (Mus musculus, UniProt P11881); test: GST pulldown with GST-IIab; type: binding; details: IRBIT in high salt extract
T5 construct: made in house; host or cells: Escherichia coli
From the text: as §1, §2

[6] = biological target: T6, type II phosphatidylinositol phosphate kinase α (Homo sapiens, UniProt P48426); test: Co-immunoprecipitation in Cos-7 cells with Myc-PIPKII α; type: binding; details: overexpressing Cos-7 cells
T6 construct: expressed in transfected cells; host or cells: Cos-7
T6 sequence (P48426 1-406): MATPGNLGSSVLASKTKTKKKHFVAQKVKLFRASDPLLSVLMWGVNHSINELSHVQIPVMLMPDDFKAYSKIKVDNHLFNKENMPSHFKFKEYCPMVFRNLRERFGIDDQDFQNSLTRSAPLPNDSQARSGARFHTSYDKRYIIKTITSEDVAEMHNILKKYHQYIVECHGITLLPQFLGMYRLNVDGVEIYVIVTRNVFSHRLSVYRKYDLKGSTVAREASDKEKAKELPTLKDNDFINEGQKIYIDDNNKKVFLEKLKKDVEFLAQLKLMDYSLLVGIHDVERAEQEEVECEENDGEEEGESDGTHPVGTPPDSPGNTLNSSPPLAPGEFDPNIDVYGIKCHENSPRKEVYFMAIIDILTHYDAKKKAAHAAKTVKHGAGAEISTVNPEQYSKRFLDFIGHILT
Protocol: (§3) (A and B) IRBIT was transfected into Cos-7 cells with Myc-tagged type II phosphatidylinositol phosphate kinase α, β or γ (PIPKII α, β or γ). After two days, cells were lysed in lysis buffer, followed by centrifugation (100,000×g, 30 min). The supernatants were incubated with 3 μg of anti-IRBIT antibody, rabbit IgG, mouse anti-Myc antibody, or mouse IgG for 1 h at 4° C. After adding 5 μl of Protein G beads and another 1-h incubation, the beads were washed five times with lysis buffer and analyzed by Western blotting with anti-IRBIT antibody or HRP conjugated anti-Myc antibody. Immunoprecipitation of Myc-PIPKII α, β or γ with anti-Myc antibody co-precipitated IRBIT (A). In the reciprocal experiments, immunoprecipitation of IRBIT with anti-IRBIT antibody precipitated Myc-PIPKII α, β or γ.
as §3, with “IRBIT” for “(A and B) IRBIT”, “antibody.” for “antibody. Immunoprecipitation of Myc-PIPKII α, β or γ with anti-Myc antibody co-precipitated IRBIT (A). In the reciprocal experiments, immunoprecipitation of IRBIT with anti-IRBIT antibody precipitated Myc-PIPKII α, β or γ.”

[7] = biological target: T7, type II phosphatidylinositol phosphate kinase β (Homo sapiens, UniProt P78356); test: Co-immunoprecipitation in Cos-7 cells with Myc-PIPKII β; type: binding; details: overexpressing Cos-7 cells
T7 construct: expressed in transfected cells; host or cells: Cos-7
T7 sequence (P78356 1-416): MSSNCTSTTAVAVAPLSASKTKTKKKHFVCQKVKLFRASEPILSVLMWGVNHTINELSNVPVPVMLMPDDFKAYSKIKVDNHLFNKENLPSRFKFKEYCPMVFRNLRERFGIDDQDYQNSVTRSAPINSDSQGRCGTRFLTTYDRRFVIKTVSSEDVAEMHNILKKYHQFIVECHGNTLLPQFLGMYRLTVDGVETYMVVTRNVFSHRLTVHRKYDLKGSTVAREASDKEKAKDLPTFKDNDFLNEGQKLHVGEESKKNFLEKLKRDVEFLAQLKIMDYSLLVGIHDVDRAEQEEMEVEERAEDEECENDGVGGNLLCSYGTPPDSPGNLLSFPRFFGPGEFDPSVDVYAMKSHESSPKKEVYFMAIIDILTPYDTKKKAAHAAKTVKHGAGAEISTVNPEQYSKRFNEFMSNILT
Protocol: as §3
as §3, with “IRBIT” for “(A and B) IRBIT”, “antibody.” for “antibody. Immunoprecipitation of Myc-PIPKII α, β or γ with anti-Myc antibody co-precipitated IRBIT (A). In the reciprocal experiments, immunoprecipitation of IRBIT with anti-IRBIT antibody precipitated Myc-PIPKII α, β or γ.”

T1 sequence (P11881 224-604): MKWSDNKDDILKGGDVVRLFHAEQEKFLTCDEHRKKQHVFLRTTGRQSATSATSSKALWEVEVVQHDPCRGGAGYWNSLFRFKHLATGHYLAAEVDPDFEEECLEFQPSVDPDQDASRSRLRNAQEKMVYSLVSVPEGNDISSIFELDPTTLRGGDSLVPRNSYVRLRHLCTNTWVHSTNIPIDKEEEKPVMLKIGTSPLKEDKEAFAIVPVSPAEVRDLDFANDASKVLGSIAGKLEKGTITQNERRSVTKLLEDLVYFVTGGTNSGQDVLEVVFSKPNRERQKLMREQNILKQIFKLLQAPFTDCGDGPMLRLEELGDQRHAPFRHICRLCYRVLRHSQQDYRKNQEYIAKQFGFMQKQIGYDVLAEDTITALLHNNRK
T5 sequence (P11881 341-923): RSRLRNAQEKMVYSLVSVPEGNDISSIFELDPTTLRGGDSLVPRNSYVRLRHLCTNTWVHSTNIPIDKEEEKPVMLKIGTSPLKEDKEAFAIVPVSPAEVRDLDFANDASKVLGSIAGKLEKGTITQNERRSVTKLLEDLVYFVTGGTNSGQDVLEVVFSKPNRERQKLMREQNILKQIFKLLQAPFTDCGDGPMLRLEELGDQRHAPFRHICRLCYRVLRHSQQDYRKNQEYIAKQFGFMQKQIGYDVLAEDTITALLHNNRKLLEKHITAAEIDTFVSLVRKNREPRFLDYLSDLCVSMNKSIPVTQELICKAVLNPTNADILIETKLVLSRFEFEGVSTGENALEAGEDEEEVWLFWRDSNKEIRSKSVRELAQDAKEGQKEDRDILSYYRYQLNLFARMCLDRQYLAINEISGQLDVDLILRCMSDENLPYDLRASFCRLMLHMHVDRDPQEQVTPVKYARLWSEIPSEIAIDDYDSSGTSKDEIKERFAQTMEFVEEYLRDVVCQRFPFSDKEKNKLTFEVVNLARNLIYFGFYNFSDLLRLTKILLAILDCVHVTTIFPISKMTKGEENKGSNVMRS
T2 sequence (P11881 224-604 R441Q): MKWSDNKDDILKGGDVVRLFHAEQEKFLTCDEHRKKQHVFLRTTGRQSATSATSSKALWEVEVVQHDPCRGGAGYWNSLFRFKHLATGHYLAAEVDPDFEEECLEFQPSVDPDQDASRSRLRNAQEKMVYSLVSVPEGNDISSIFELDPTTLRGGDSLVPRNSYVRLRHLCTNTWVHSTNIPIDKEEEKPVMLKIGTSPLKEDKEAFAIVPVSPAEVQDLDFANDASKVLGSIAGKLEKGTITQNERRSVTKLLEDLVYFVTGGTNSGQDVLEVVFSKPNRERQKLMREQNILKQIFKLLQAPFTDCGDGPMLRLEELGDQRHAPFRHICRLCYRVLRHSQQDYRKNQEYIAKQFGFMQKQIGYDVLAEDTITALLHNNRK
T3 sequence (P11881 224-604 K508A): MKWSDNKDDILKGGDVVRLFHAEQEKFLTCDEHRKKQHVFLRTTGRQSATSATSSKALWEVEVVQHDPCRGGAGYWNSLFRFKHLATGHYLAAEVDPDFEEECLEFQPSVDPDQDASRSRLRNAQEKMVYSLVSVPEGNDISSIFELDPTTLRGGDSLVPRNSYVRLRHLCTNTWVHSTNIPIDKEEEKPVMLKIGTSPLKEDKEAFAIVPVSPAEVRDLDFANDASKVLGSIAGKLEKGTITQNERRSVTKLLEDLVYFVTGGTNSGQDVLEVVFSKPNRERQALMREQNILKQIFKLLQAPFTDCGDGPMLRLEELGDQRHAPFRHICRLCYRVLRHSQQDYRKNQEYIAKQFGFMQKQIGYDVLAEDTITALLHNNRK
T4 sequence (P11881 1-343): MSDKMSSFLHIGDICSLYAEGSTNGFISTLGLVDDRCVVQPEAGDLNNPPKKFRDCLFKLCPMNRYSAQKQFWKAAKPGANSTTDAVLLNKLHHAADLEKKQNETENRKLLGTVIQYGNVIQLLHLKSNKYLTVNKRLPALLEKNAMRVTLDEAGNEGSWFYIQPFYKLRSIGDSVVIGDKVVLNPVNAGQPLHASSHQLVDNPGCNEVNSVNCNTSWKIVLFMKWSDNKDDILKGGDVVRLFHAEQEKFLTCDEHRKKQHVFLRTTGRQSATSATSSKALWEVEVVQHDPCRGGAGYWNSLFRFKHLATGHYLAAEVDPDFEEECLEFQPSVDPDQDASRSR

B1: IRBIT: novel IP3 receptor-binding protein of 530 amino acids, SEQ ID NO: 1 (protein, listed as Mus musculus)
chain: MSMPDAMPLPGVGEELKQAKEIEDAEKYSFMATVTKAPKKQIQFADDMQEFTKFPTKTGRRSLSRSISQSSTDSYSSAASYTDSSDDEVSPREKQQTNSKGSSNFCVKNIKQAEFGRREIEIAEQDMSALISLRKRAQGEKPLAGAKIVGCTHITAQTAVLIETLCALGAQCRWSACNIYSTQNEVAAALAEAGVAVFAWKGESEDDFWWCIDRCVNMDGWQANMILDDGGDLTHWVYKKYPNVFKKIRGIVEESVTGVHRLYQLSKAGKLCVPAMNVNDSVTKQKFDNLYCCRESILDGLKRTTDVMFGGKQVVVCGYGEVGKGCCAALKALGAIVYITEIDPICALQACMDGFRVVKLNEVIRQVDVVITCTGNKNVVTREHLDRMKNSCIVCNMGHSNTEIDVTSLRTPELTWERVRSQVDHVIWPDGKRVVLLAEGRLLNLSCSTVPTFVLSITATTQALALIELYNAPEGRYKQDVYLLPKKMDEYVASLHLPSFDAHLTELTDDQAKYLGLNKNGPFKPNYYRY
- binding to GST-IbIIa [1]: to the same extent as GST-EL
- binding to R441Q [2]: to the same extent
- binding to K508A [3]: did not bind
- interaction with GST-Iab [4]: did not interact
- interaction with GST-IIab [5]: did not interact
- interaction with PIPKII α [6]: interacted
- interaction with PIPKII β [7]: interacted

Reference: US20050181450A1, “Novel inositol 1,4,5-trisphosphate (IP3) receptor-binding protein and an IP3 indicator” (priority 2002, published 2005)
